Among the data in US20240218024A1, “METHODS AND COMPOSITIONS FOR TREATMENT OF VIRAL INFECTION” (TECHNION RESEARCH & DEVELOPMENT FOUNDATION LIMITED, priority 2021, published 2024) are antiviral response values, retold here.

The subject of one data set is SARS-COV-2 delta variant. The format is cell-based. Conditions: slncRNA alone, low concentrations (potentially a non-specific effect at higher concentrations).
For data set [1], the system named is SARS-COV-2 omicron variant. The format is cell-based. Conditions: slncRNA alone, low concentrations (potentially a non-specific effect at higher concentrations).

B1: PCP-14×/MCP-15×: class II slncRNA with fourteen PCP binding sites spaced by hairpins that do not bind PCP (SEQ ID NO: 28) (nucleic acid)
chain: GAGAAACGTTTCGACATTATATGGAATGCGAAAGTGGAACGTAATGGACATGAAGACGATTACGCTTCACACGGAGGATGCGGGAAACATGAAGATCACCCATGTTCGCTTAACCATGGATAGGGATCACCCATGTTGCGGTGGTGCGTCAACCAGAGATTTCATATGGGAAACTCTGGGACACGCTGTATTTATACATGAGGATCACCATGTGTGCTTAAATATGGGTAAGTTGACCATTAGGCAACTGTAAGATGCTCCGGTTAATTCCAGTTTATATGGAAACGGAATTGATGTACCGTTGAGCAAGAACACGATTACGGTTCTTCGATTAGATATGGTTTAAACGACAATATATGGATTGCGTTTTGGGGCACGCCGTCTGGAGAAGACCATTAGGCTTCTTTACTGCGACCGCAATAAAAGGAGATTATATGAAATCCCTTTGCGCGCAACCGGGTAGAAGATCACCATTAGGGATCTGTAACTCACGGCGCTATTACGAGTCAATATGGTGACCGTAAAGCTAGGGCATGTGCCAGAAGAGCATTAGCCTTCTCCTTGGTGGGGAAGCGATAAGCACATTATAAGGAATGGCTTAAAGTGGTGCGGCGGGGGACTTGACCATTAGGCAAGTGTGCTAGACCCTGGTCTTTTCGAGAAAATATGGTTTCCGAAAGAACTATACGAAGTGACATGCGAGGATTACCCGCATATGGTGCAAATGGGAGAATTGGAGTAAATATGGTTACCCAATAGGCTAGAGCATGACGGCAGTGAGAATTATCCACTGGTTAGCGGGTTACCGAGATTGCACATTATATGGAATGGCAATTGATTCATGCCGGTCGTTTGTGAGGAGTACCCACAAAATGGGAGGGTGCTATATAACCAGGTTATATGCAACCGGTTAGGCCGTTGTGTTAGTTTAGTTCAGCATTAGCGAACTGTGCAAGACCCGGTGGCTAAGGAGTTTATATGGAAACCCTTAGCCCTCGAGCATGCTAACATGAGGATTACCCATGTGATGGGTTTGAAACGTGCAATTATTTGATATGGCAAAAATTGGGTAGGGCATGGCTGCAGCGTGAGAATTATCCACGCTAGGCTAGAGCATGGCGGTATTGAGTTCGGGTTTGAGATGACCATTAGGCATCTGTGCTAGAGCATGCGAAAACGACATAATATGGTATGCGTTTTGGGGTGCTAGTATACCACATGATGAGCACACATGTATGGGTGGGAGGTAGAGGGATTCTCGCGAGAAGA
Take B1: the antiviral response result (in the data set on SARS-COV-2 delta variant; in data set [1]) was “no substantial antiviral response” each time.
